Data from patent publication US9540428B2, “Extracellular matrix heparin-binding domains” (EPFL-TTO, priority 2012, dated 2017).

Tests used:
Conditions in all cases: 50 nM cytokine coated
[1] = target: HGF (Homo sapiens, UniProt P14210); assay: ELISA binding to coated HGF
Protocol: (§1) ELISA plates were coated with cytokines or BSA and further incubated with TNC III1-5 to analyze binding of TNC III1-5 to a wide variety of cytokines. […] Results are depicted in FIG. 3. Method: 50 nM of cytokine was coated for (1 hr, 37° C.). After blocking with 2% BSA (1 hr, RT). 100 nM TNC III1-5 was applied in PBST (0.05% tween, 0.1% bovine serum albumin (BSA)) (1 hr, RT). TNC III1-5 was detected with horseradish peroxidase (HRP)-anti-HIS in PBST (1 hr, RT) and developed with 3,3′,5,5′-tetramethylbenzidine (TMB), a soluble colorimetric HRP […]. Addition of sulfuric acid stop solution changes the color to yellow, enabling accurate measurement of the intensity at 450 nm using a spectrophotometer or plate reader. […] Heparin (4 μM) was added to TNC III1-5 to test the effect of blocking the heparin binding site of TNC III1-5, which has been defined as domain TNC III5 (Weber, Zimmermann, et al., 1995).

[2] = target: PDGF-DD (Homo sapiens, UniProt Q9GZP0); assay: ELISA binding to coated PDGF-DD
Protocol: as §1

[3] = target: T1, FGF-6 (Homo sapiens, UniProt P10767); assay: ELISA binding to coated FGF-6
T1 sequence (P10767 38-208): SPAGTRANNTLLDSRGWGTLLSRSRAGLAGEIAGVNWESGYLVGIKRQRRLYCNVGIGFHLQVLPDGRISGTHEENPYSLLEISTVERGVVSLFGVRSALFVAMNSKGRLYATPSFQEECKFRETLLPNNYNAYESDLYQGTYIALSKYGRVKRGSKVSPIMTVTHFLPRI
Protocol: as §1

[4] = target: T2, VEGF-C (Homo sapiens, UniProt P49767); assay: ELISA binding to coated VEGF-C
T2 sequence (P49767 112-419): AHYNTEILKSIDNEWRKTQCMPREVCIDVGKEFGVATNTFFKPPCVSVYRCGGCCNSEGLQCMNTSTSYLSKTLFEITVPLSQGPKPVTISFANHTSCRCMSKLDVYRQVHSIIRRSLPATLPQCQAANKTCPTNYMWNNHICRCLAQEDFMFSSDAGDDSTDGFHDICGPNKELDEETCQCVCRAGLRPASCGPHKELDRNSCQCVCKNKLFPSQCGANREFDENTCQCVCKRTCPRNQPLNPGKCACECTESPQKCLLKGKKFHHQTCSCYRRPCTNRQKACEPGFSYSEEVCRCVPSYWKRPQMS
Protocol: as §1

[5] = target: T3, FGF-4 (Homo sapiens, UniProt P08620); assay: ELISA binding to coated FGF-4
T3 sequence (P08620 31-206): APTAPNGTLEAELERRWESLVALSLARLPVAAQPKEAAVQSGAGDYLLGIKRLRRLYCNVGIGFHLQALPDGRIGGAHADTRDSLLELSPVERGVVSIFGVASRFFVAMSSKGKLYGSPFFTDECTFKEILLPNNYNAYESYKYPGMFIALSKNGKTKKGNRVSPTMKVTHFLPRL
Protocol: as §1

[6] = target: T4, PlGF-3 (Homo sapiens, UniProt P49763); assay: ELISA binding to coated PlGF-3
T4 sequence (P49763 19-221): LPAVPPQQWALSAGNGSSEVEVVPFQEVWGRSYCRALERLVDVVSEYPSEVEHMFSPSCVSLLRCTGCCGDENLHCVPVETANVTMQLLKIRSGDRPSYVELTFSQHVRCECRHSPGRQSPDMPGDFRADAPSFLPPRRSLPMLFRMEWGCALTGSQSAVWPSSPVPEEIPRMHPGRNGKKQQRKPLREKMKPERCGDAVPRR
Protocol: as §1
(§2) ELISA plates were coated with cytokines or BSA and further incubated with Fg β15-66 to analyze binding of […] to a wide variety of cytokines. […] Results are depicted in FIG. 4. Method: The methods were analogous to those used in Example 3.

[7] = target: T5, BMP-2/7 (Homo sapiens, UniProt P12643+P18075); assay: ELISA binding to coated BMP-2/7
T5 sequence (P12643 283-396): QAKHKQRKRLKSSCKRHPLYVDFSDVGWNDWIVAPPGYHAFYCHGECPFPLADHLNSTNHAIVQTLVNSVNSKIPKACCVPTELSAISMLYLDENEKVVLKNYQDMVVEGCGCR
T5 sequence (P18075 293-431): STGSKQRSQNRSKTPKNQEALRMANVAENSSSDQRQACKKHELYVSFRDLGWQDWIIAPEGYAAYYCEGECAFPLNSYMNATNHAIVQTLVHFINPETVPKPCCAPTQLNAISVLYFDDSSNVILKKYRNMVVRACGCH
Protocol: as §1, §2

Chain of HGF (P14210 32-728, species assumed): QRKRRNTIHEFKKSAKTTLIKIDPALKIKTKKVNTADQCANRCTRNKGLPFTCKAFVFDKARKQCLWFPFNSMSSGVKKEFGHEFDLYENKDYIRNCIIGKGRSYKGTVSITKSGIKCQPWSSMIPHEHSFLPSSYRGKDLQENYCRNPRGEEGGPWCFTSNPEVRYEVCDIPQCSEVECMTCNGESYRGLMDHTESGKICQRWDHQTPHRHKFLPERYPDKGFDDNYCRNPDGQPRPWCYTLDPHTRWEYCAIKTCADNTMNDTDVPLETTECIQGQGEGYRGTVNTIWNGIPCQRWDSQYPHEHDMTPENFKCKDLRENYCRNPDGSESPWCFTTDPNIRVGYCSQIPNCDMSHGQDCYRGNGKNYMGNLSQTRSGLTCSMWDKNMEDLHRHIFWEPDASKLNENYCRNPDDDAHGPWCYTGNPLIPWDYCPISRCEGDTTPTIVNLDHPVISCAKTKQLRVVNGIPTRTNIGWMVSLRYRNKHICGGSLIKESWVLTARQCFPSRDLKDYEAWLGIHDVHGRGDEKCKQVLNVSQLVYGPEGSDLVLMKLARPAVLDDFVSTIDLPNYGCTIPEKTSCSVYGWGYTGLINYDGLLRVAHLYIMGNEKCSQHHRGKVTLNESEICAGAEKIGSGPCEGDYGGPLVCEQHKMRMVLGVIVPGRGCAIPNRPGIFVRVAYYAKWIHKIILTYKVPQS
Chain of PDGF-DD (Q9GZP0 250-370 limits assumed): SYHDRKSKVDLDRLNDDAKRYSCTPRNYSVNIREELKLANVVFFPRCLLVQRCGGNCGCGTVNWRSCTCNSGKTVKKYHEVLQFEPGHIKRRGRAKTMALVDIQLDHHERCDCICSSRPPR

B1: TNC III1-5: recombinant tenascin C fibronectin type III repeats 1-5 (E622 to A1074) with transglutaminase substrate NQEQVSPL and 6×His tag, SEQ ID NO:1 (protein)
chain: METDTLLLWVLLLWVPGSTGDAAQPAIEGRNQEQVSPLGGSEVSPPKDLVVTEVTEETVNLAWDNEMRVTEYLVVYTPTHEGGLEMQFRVPGDQTSTIIQELEPGVEYFIRVFAILENKKSIPVSARVATYLPAPEGLKFKSIKETSVEVEWDPLDIAFETWEIIFRNMNKEDEGEITKSLRRPETSYRQTGLAPGQEYEISLHIVKNNTRGPGLKRVTTTRLDAPSQIEVKDVTDTTALITWFKPLAEIDGIELTYGIKDVPGDRTTIDLTEDENQYSIGNLKPDTEYEVSLISRRGDMSSNPAKETFTTGLDAPRNLRRVSQTDNSITLEWRNGKAAIDSYRIKYAPISGGDHAEVDVPKSQQATTKTTLTGLRPGTEYGIGVSAVKEDKESNPATINAATELDTPKDLQVSETAETSLTLLWKTPLAKFDRYRLNYSLPTGQWVGVQLPRNTTSYVLRGLEPGQEYNVLLTAEKGRHKSKPARVKASTEQAGGGSHHHHHH
modifications: Tenascin III signal sequence with polyhistidine tag
positive binding: binding to HGF (ELISA, signal above BSA background) [1] | binding to PDGF-DD (ELISA, signal above BSA background) [2] | binding to FGF-6 (ELISA, signal above BSA background) [3] | binding to VEGF-C (ELISA, signal above BSA background) [4] | binding to FGF-4 (ELISA, signal above BSA background) [5]

B2: Fg β15-66: heparin-binding domain of human fibrinogen β chain aa15-66 (SEQ ID NO:8); construct with TG substrate and His tag, SEQ ID NO:2 (protein)
chain: GSNQEQVSPLGHRPLDKKREEAPSLRPAPPPISGGGYRARPAKAAATQKKVERKAPDAGGCGHHHHHH
modifications: GS linker, transglutaminase substrate, the Fg beta15-66, with a Histidine tag
positive binding: binding to PlGF-3 (ELISA, signal above BSA background) [6] | binding to BMP-2/7 (ELISA, signal above BSA background) [7]
